Test results taken from US20230190951A1, “CONJUGATES OF ANTIBODIES AN IMMUNE CELL ENGAGERS” (SYNAFFIX B.V., priority 2020, published 2023).

Assays:
[1] = biological target: FcRn receptor; assay: SPR (Biacore T200), FcRn on CM5 chip, steady state analysis, pH 6.0; pH 6.0
[2] = biological target: CD3 on the cell surface of Jurkat E6.1 cells (UniProt P07766); assay: flow cytometry on Jurkat E6.1 cells, 1 nM antibody, anti-IgG1-PE; negative control
[3] = biological target: CD3 on the cell surface of Jurkat E6.1 cells (UniProt P07766); assay: flow cytometry on Jurkat E6.1 cells, 10 nM antibody, anti-IgG1-PE; negative control
[4] = biological target: CD3 on the cell surface of Jurkat E6.1 cells (UniProt P07766); assay: flow cytometry on Jurkat E6.1 cells, 100 nM antibody, anti-IgG1-PE; negative control
[5] = biological target: CD3 on the cell surface of Jurkat E6.1 cells (UniProt P07766); assay: flow cytometry on Jurkat E6.1 cells, 316 nM antibody, anti-IgG1-PE; negative control
[6] = biological target: CD3 on the cell surface of Jurkat E6.1 cells (UniProt P07766); assay: flow cytometry on Jurkat E6.1 cells, 0.32 nM antibody, anti-IgG1-PE; negative control
[7] = biological target: CD3 on the cell surface of Jurkat E6.1 cells (UniProt P07766); assay: flow cytometry on Jurkat E6.1 cells, 1000 nM antibody, anti-IgG1-PE; negative control
[8] = biological target: CD3 on the cell surface of Jurkat E6.1 cells (UniProt P07766); assay: flow cytometry on Jurkat E6.1 cells, 3.16 nM antibody, anti-IgG1-PE; negative control
[9] = biological target: CD3 on the cell surface of Jurkat E6.1 cells (UniProt P07766); assay: flow cytometry on Jurkat E6.1 cells, 31.6 nM antibody, anti-IgG1-PE; negative control

Sequence of CD3 on the cell surface of Jurkat E6.1 cells (P07766 23-207): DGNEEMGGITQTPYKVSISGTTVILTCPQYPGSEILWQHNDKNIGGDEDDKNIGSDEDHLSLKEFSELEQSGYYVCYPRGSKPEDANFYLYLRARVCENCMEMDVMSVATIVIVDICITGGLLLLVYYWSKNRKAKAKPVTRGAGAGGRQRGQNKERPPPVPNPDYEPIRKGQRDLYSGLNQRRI
Sequence of FcRn receptor (P55899 24-297, chain 1 of 2): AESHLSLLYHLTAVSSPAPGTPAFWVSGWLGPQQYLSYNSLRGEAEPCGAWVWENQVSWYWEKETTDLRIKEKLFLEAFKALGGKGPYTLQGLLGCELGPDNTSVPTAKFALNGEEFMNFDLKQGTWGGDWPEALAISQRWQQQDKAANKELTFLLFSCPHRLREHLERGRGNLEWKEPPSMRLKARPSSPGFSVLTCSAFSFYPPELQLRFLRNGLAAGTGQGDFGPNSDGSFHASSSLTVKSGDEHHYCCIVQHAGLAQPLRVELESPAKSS
Sequence of FcRn receptor (P61769 21-119, chain 2 of 2, further chain): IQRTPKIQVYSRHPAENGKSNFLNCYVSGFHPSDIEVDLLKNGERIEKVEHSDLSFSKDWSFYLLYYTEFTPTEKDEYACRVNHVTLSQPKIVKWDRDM

Substance	Kd [1]	median fluorescence intensity [2]	median fluorescence intensity [3]	median fluorescence intensity [4]	median fluorescence intensity [5]	median fluorescence intensity [6]	median fluorescence intensity [7]	median fluorescence intensity [8]	median fluorescence intensity [9]
Irrelevant IgG1 WT (antibody)	1740 nM								
Rituximab (antibody)		56.5	60.8	55.5	55	58.3	66.4	55.4	58.7
